Source: paper PMC9741107, “The L-Rhamnose Biosynthetic Pathway in Trichomonas vaginalis: Identification and Characterization of UDP-D-Glucose 4,6-dehydratase” (International Journal of Molecular Sciences, 2022)

What was measured:
[1] = substrate: Cc1cn([C@H]2C[C@H](O)[C@@H](COP(=O)(O)OP(=O)(O)O[C@H]3O[C@H](CO)[C@@H](O)[C@H](O)[C@H]3O)O2)c(=O)[nH]c1=O; assay: anion-exchange HPLC of substrate consumption, Michaelis-Menten fit; assay type: biochemical, Trichomonas vaginalis; conditions: 50 mM Tris/HCl, 150 mM NaCl, pH 7.0, 25 °C, no added NAD(P)+ or bivalent cations needed
[2] = substrate: O=c1ccn([C@@H]2O[C@H](CO[P@@](=O)(O)O[P@@](=O)(O)O[C@H]3O[C@H](CO)[C@@H](O)[C@H](O)[C@H]3O)[C@@H](O)[C@H]2O)c(=O)[nH]1; assay: as above; assay type: biochemical, Trichomonas vaginalis; conditions: 50 mM Tris/HCl, 150 mM NaCl, pH 7.0, 25 °C, no added NAD(P)+ or bivalent cations needed
[3] = biological target: the molecule itself; assay: SEC; size-exclusion chromatography of the purified protein on a TSK-gel 3000 column, as described in ref. 23; molecular weight calculated from the elution time

B1: UDP-D-glucose 4,6-dehydratase from Trichomonas vaginalis (TvUGD, TVAG_414560) (enzyme, Trichomonas vaginalis (strain G3), UniProt A2GEF2 1-348, looked up)
chain: MSEDYQPHVILLTGGAGFIGSHVCNHLVLKYPDVKIICLDVMDYCANLRNLEEIMNKPNFLFIKGSINNVELVSYIMKTHAVDTVMHFAAQSHVDRSFGNSLEFTHTNILGTHVLLECAKQNNIKRFIHVSTDEVYGEVLSGCAEEEKSILCPTNPYACSKAGAEFMCQAYIRSFNMPIIITRGNNVFGPKQFPEKVIPKFTLLLKAGHKCCIHGDGSALRNFLHTSDVVQAFDTILHKGKLHQIYNIGTDFEISVLEMTKKLIKVLNMPGKPEDWIEFVPDRAFNDSRYMINSSKLIALGWHANTDFDTLLKETVQWYLDHMDYWKDRDINTYLSPHPIAYAPKTAE
notes: calculated monomer mass 39 kDa; Residues of the vector may remain after protease cleavage; also called TvGD; UDP-D-Glc 4,6-dehydratase; source: E. coli BL21, GST-fusion from pGEX-6P1, purified on GSH-sepharose 4B, GST removed by precision protease cleavage
B1 gave a Km [1] of 362.8 ± 73.4 µM, a kcat [1] of 0.36 ± 0.03 s⁻¹ and a Km [2] of 21.3 ± 3.4 µM. For the same protein, the kcat [2] was 0.39 ± 0.01 s⁻¹ and the “stoichiometry N” value [3] was 2.
